These results are taken from PMC5794792.

The target of test [1] is Bovine α-chymotrypsin (bovine). The test can be described thus: complex dissociation followed by regain of protease activity; 5 µM serpin-chymotrypsin complex diluted 200–2000-fold (0–25 nM) into assay buffer with substrate, 25 °C; apparent rate constant k_(diss,app).
Test [2] has as its target Bovine α-chymotrypsin (bovine). The test can be described thus: enzyme inhibition kinetics (progress curves); inhibition of chymotrypsin by several serpin concentrations followed over time at 25 °C; slope of kobs against inhibitor concentration, corrected for non-productive turnover (k'ass); protease assay buffer pH 8.0 with chromogenic substrate.

“α1-antitrypsin (from UniProt P01009 25-418) (natural protein)”: the koff – broadly, a measure of how fast the partners let go of each other – in test [1] is 7.5e-06 s⁻¹. The kon (commonly the rate constant with which the complex forms) in test [2] is 690000 M⁻¹ s⁻¹.
